# Source: patent publication US8785391B2, “Compound and method for treatment of alzheimer's disease and familial dementia” (Alphabeta AB, priority 2010, dated 2014)
# Like-named read-outs stand apart in the source and are kept apart here.
# Legend:
# Assay type in all cases: biochemical
# Aβ1-40 [1] = biological target: T1, Aβ1-40 (Homo sapiens, UniProt P05067); assay: SDS-PAGE of supernatants, soluble Aβ1-40; details: co-incubation with 25 μM Aβ1-40, 37° C., 3 weeks incubation, centrifugation at 3300 g
# T1 construct: made in house; host or cells: E. coli
# T1 sequence (P05067 672-711): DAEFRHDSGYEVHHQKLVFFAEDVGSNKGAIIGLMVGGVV
# Experimental: […] Aβ1-40 was dissolved in 100% DMSO to 250 μM stock solution, which was diluted to working concentrations. For Thioflavin T (ThT) fluorescence measurements, 10 μl aliquots were removed at different time points, 10 μM ThT (Aldrich) added, and fluorescence was measured with a […] fluorescence plate reader (GE Healthcare), emission wavelength is 480 nm, excitation wavelength 440 nm. Measurements of ThT were done in duplicates. For analysis of soluble Aβ1-40 and ultrastructure of Aβ aggregates, aliquots were removed and centrifuged at 3300 g for 9 min. The supernatant was analyzed by SDS-PAGE and pellets were resuspended in 200 μl distilled water, 2 μl of the resuspension was added onto 200 mesh copper electron microscopy grids, stained with 2% uranyl acetate for 30 s, then left to dry at 20° C. A Hitachi H 7100 microscope operated at 75 kV was used for examination and photographing.
# Aβ1-42 = biological target: T2, Aβ1-42 (Homo sapiens, UniProt P05067); assay: ThT aggregation kinetics of Aβ1-42 (Example 4)
# T2 construct: made in house; host or cells: E. coli
# T2 sequence (P05067 672-713): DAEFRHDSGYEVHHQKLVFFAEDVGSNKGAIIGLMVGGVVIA
# Description: Aβ1-40 (SEQ ID NO: 11) and Aβ1-42 (SEQ ID NO: 12) were expressed in E. coli from synthetic genes and purified in batch format using ion exchange and size exclusion steps as described in Walsh et al., FEBS J. 2009, 276, 1266-1281, which results in highly pure monomeric peptide. Purified peptide was divided into 20-30 identical aliquots and frozen. Monomer was then isolated by gel filtration of an aliquot of purified peptide just prior to setting up each of the experiments listed below to remove traces of aggregate formed during freezing and thawing and to exchange buffer to the one used in the respective experiment. Monomer was collected in low-bind Ep-tubes ([…]) on ice, and the concentration was determined by absorbance or amino acid analysis after acid hydrolysis. The monomer was used as is or diluted to the desired concentration for the respective experiment. Bri2(90-236) (SEQ ID NO: 2) was expressed and purified as described in Example 1. Aggregation kinetics were studied by recording the Thioflavin T (ThT) fluorescence intensity as a function of time in a plate reader (FluoStar Omega from BMG Labtech, Offenberg, Germany). The fluorescence was recorded using bottom optics in half-area 96-well PEG-coated black polystyrene plates with clear bottom (Corning 3881) using 440 nm excitation filter and 480 nm emission filter. Aβ monomer was isolated by gel filtration as above in 20 mM Na-phosphate, 200 μM EDTA, 0.02% NaN3 (at pH 7.4 in the case of Aβ1-40 and at pH 8.0 for Aβ1-42) and diluted to 6 or 8 μM in the case of Aβ1-40 and 3 μM in the case of Aβ1-42 in the same buffer and supplemented with 20 μM ThT from a 2 mM stock. To each well in the 96-well plate was first added either 10 μl buffer (20 mM Tris/HCl pH 7.4) or 10 μl of Bri2(90-236) protein or control protein at ten times the desired final concentration in 20 mM Tris/HCl pH 7.4. To each well was then added 90 μl of the ice-cold Aβ monomer solution, and the plate was immediately placed in the plate reader at 37° C., with fluorescence read every 6 minutes with continuous shaking at 100 rpm between readings. […]
# Aβ1-40 [2] = biological target: T1, Aβ1-40
# Description: Aβ1-40 (SEQ ID NO: 11) and Aβ1-42 (SEQ ID NO: 12) were expressed in E. coli from synthetic genes and purified in batch format using ion exchange and size exclusion steps as described in Walsh et al., FEBS J. 2009, 276, 1266-1281, which results in highly pure monomeric peptide. Purified peptide was divided into 20-30 identical aliquots and frozen. Monomer was then isolated by gel filtration of an aliquot of purified peptide just prior to setting up each of the experiments listed below to remove traces of aggregate formed during freezing and thawing and to exchange buffer to the one used in the respective experiment. Monomer was collected in low-bind Ep-tubes ([…]) on ice, and the concentration was determined by absorbance or amino acid analysis after acid hydrolysis. The monomer was used as is or diluted to the desired concentration for the respective experiment. Bri2(90-236) (SEQ ID NO: 2) was expressed and purified as described in Example 1. Aggregation kinetics were studied by recording the Thioflavin T (ThT) fluorescence intensity as a function of time in a plate reader (FluoStar Omega from BMG Labtech, Offenberg, Germany). The fluorescence was recorded using bottom optics in half-area 96-well PEG-coated black polystyrene plates with clear bottom (Corning 3881) using 440 nm excitation filter and 480 nm emission filter. Aβ monomer was isolated by gel filtration as above in 20 mM Na-phosphate, 200 μM EDTA, 0.02% NaN3 (at pH 7.4 in the case of Aβ1-40 and at pH 8.0 for Aβ1-42) and diluted to 6 or 8 μM in the case of Aβ1-40 and 3 μM in the case of Aβ1-42 in the same buffer and supplemented with 20 μM ThT from a 2 mM stock. To each well in the 96-well plate was first added either 10 μl buffer (20 mM Tris/HCl pH 7.4) or 10 μl of Bri2(90-236) protein or control protein at ten times the desired final concentration in 20 mM Tris/HCl pH 7.4. To each well was then added 90 μl of the ice-cold Aβ monomer solution, and the plate was immediately placed in the plate reader at 37° C., with fluorescence read every 6 minutes with continuous shaking at 100 rpm between readings. Aβ1-40 was studied alone or with Bri2(90-236) at a concentration ranging from 60 nM to 6 μM. Aβ1-42 was studied alone or with Bri2(90-236) at a concentration ranging from 20 nM to 6 μM.
# Aβ1-40 [3] = biological target: T1, Aβ1-40; assay: ThT aggregation of Aβ1-40, Bri2(90-236) added at different time points
# Experimental: Aggregation of 8 μM Aβ1-40 was monitored by recording the ThT fluorescence intensity as a function of time in 20 mM Na-phosphate, 200 μM EDTA, 20 μM ThT, 0.02% NaN3, 37° C. with 100 rpm shaking. 800 nM Bri2(90-236) was added from a concentrated stock before the start of the experiment or at different time points after starting the experiment ranging from 0.3 to 11.2 hours.
molecule,measurement,setting,value
"Bri2(90-236): recombinant protein of residues 90-236 of human Bri2 (SEQ ID NO: 2), encompassing the Brichos domain, expressed in E. coli (protein, listed as Homo sapiens) GIKYIKDDVILNEPSADAPAALYQTIEENIKIFEEEEVEFISVPVPEFADSDPANIVHDFNKKLTAYLDLNLDKCYVIPLNTSIVMPPRNLLELLINIKAGTYLPQSYLIHEHMVITDRIENIDHLGFFIYRLCHDKETYKLQRRET",Aβ1-40 in solution (SDS-PAGE of supernatants),Aβ1-40 [1],staying in solution
same,lag time of Aβ1-42 aggregation,"Aβ1-42; 3 μM Aβ1-42, molar ratio of 0.1 (1 Bri2(90-236) per 10 Aβ1-42), compared to the undisturbed case",doubled
same,half time of Aβ1-42 aggregation,"Aβ1-42; 3 μM Aβ1-42, molar ratio of 0.1, compared to the undisturbed case",doubled
same,prolongation of half time of Aβ1-40 aggregation,"Aβ1-40 [2]; 170 nM Bri2(90-236), relative to 6 μM Aβ1-40 alone",approximately 4.5 times
same,lag time of Aβ1-40 aggregation,"Aβ1-40 [2]; 0.01 or 0.03 molar equivalents of Bri2(90-236), far below equimolar",increases extensively
same,lag time of Aβ1-40 aggregation,Aβ1-40 [2]; above a molar ratio of 0.1 (1 Bri2(90-236) per 10 Aβ1-40 molecules),exceeds one week
same,elongation rate of Aβ1-40 aggregation,Aβ1-40 [2]; in the presence of Bri2(90-236),largely unaffected
same,effect on Aβ1-40 aggregation process,"Aβ1-40 [3]; 8 μM Aβ1-40, 800 nM Bri2(90-236) added anywhere during the lag time",can be delayed
same,effect on Aβ1-40 aggregation process,"Aβ1-40 [3]; 8 μM Aβ1-40, 800 nM Bri2(90-236) added at the end of the transition",no effect is seen
same,effect on Aβ1-40 aggregation process,"Aβ1-40 [3]; 8 μM Aβ1-40, 800 nM Bri2(90-236) added close to the mid point of the transition",reduce its speed and progress at lower rate
same,effect on Aβ1-40 aggregation process,"Aβ1-40 [3]; 8 μM Aβ1-40, 800 nM Bri2(90-236) added during the early part of the sigmoidal transition",appears to halt with no further growth of the ThT positive aggregates
